According to patent US20110039779A1, “IGF-1R BINDING PROTEINS AND ANTAGONISTS” (priority 2007, published 2011):

Experiments:
[1] = target: IGF-1R on MCF-7 cells (MCF-7S8, MCF7) (human), P08069; experiment: cell-based or functional assay
[2] = target: IGF-1R on SW480 cells, P08069; experiment: cell-based or functional assay
Sequence of IGF-1R on SW480 cells, P08069 (P08069 31-1367 limits assumed): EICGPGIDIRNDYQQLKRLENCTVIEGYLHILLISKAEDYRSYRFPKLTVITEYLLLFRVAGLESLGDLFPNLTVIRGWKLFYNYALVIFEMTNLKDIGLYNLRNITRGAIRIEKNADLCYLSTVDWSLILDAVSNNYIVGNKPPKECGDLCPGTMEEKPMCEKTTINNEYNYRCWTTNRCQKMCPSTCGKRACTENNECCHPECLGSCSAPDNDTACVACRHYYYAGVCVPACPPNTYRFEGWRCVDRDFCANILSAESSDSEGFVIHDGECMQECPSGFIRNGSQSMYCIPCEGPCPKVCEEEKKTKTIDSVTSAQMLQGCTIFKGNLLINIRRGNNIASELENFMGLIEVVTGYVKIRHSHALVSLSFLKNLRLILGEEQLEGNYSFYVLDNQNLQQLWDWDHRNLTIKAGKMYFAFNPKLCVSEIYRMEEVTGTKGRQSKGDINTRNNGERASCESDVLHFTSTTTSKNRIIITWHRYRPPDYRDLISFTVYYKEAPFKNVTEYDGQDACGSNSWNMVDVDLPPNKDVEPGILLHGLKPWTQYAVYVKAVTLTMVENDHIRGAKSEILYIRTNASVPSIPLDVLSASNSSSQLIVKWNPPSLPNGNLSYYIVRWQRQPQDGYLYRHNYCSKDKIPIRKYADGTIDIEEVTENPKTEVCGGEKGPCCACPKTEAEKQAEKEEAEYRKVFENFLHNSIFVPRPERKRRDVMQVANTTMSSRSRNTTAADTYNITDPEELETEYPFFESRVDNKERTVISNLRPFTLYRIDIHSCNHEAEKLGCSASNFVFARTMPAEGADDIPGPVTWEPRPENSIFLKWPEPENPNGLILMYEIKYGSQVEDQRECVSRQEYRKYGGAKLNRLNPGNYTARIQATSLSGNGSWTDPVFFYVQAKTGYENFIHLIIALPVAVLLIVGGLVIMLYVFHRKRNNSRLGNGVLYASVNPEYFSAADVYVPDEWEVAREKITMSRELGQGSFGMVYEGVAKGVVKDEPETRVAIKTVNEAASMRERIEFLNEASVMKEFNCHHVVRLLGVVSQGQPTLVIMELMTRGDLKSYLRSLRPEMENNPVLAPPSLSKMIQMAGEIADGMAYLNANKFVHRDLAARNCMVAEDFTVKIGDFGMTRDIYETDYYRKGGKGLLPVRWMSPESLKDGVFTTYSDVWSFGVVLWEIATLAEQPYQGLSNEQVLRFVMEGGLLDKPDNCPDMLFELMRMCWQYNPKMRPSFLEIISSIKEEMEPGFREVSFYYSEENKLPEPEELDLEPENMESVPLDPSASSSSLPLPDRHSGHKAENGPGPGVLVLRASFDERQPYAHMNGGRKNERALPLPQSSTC

Sequence of IGF-1R on MCF-7 cells (MCF-7S8, MCF7) (human), P08069 (P08069 31-1367): as the sequence (P08069 31-1367 limits assumed) above

- Cell [1]: 1000 nM
- IC50, IGF-1 (10 nM)-induced proliferation of SW480 cells, exp. 13262-015 [2]: > 10 µM
- IC50, IGF-1 (10 nM)-induced proliferation of SW480 cells, exp. 13262-016 [2]: > 10 µM
Binder: SFYSCLESLVNGGAERSDGQWEGCR (modifications not checked) [F113]
